Measurements published in article PMC11574045, “A cofactor-induced repressive type of transcription factor condensation can be induced by synthetic peptides to suppress tumorigenesis” (The EMBO Journal, 2024).

B1: FOXS1 (protein, UniProt O43638 1-330, looked up)
Forkhead box protein S1: MQQQPLPGPGAPTTEPTKPPYSYIALIAMAIQSSPGQRATLSGIYRYIMGRFAFYRHNRPGWQNSIRHNLSLNECFVKVPRDDRKPGKGSYWTLDPDCHDMFEHGSFLRRRRRFTRQTGAEGTRGPAKARRGPLRATSQDPGVPNATTGRQCSFPPELPDPKGLSFGGLVGAMPASMCPATTDGRPRPPMEPKEISTPKPACPGELPVATSSSSCPAFGFPAGFSEAESFNKAPTPVLSPESGIGSSYQCRLQALNFCMGADPGLEHLLASAAPSPAPPTPPGSLRAPLPLPTDHKEPWVAGGFPVQGGSGYPLGLTPCLYRTPGMFFFE
B2: GABPB1 (protein, UniProt Q06547 2-395, looked up)
GA-binding protein subunit …: SLVDLGKKLLEAARAGQDDEVRILMANGAPFTTDWLGTSPLHLAAQYGHYSTTEVLLRAGVSRDARTKVDRTPLHMAASEGHASIVEVLLKHGADVNAKDMLKMTALHWATEHNHQEVVELLIKYGADVHTQSKFCKTAFDISIDNGNEDLAEILQIAMQNQINTNPESPDTVTIHAATPQFIIGPGGVVNLTGLVSSENSSKATDETGVSAVQFGNSSTSVLATLAALAEASAPLSNSSETPVVATEEVVTAESVDGAIQQVVSSGGQQVITIVTDGIQLGNLHSIPTSGIGQPIIVTMPDGQQVLTVPATDIAEETVISEEPPAKRQCIEIIENRVESAEIEEREALQKQLDEANREAQKYRQQLLKKEQEAEAYRQKLEAMTRLQTNKEAV
B3: FOXO3 (protein, UniProt O43524 1-673, looked up)
Forkhead box protein O3: MAEAPASPAPLSPLEVELDPEFEPQSRPRSCTWPLQRPELQASPAKPSGETAADSMIPEEEDDEDDEDGGGRAGSAMAIGGGGGSGTLGSGLLLEDSARVLAPGGQDPGSGPATAAGGLSGGTQALLQPQQPLPPPQPGAAGGSGQPRKCSSRRNAWGNLSYADLITRAIESSPDKRLTLSQIYEWMVRCVPYFKDKGDSNSSAGWKNSIRHNLSLHSRFMRVQNEGTGKSSWWIINPDGGKSGKAPRRRAVSMDNSNKYTKSRGRAAKKKAALQTAPESADDSPSQLSKWPGSPTSRSSDELDAWTDFRSRTNSNASTVSGRLSPIMASTELDEVQDDDAPLSPMLYSSSASLSPSVSKPCTVELPRLTDMAGTMNLNDGLTENLMDDLLDNITLPPSQPSPTGGLMQRSSSFPYTTKGSGLGSPTSSFNSTVFGPSSLNSLRQSPMQTIQENKPATFSSMSHYGNQTLQDLLTSDSLSHSDVMMTQSDPLMSQASTAVSAQNSRRNVMLRNDPMMSFAAQPNQGSLVNQNLLHHQHQTQGALGGSRALSNSVSNMGLSESSSLGSAKHQQQSPVSQSMQTLSDSLSGSSLYSTSANLPVMGHEKFPSDLDLDMFNGSLECDMESIIRSELMDADGLDFNFDSLISTQNVVGLNVGNFTGAKQASSQSWVPG
B4: FOXR2 (protein, UniProt Q6PJQ5 1-311, looked up)
Forkhead box protein R2: MDLKLKDCEFWYSLHGQVPGLLDWDMRNELFLPCTTDQCSLAEQILAKYRVGVMKPPEMPQKRRPSPDGDGPPCEPNLWMWVDPNILCPLGSQEAPKPSGKEDLTNISPFPQPPQKDEGSNCSEDKVVESLPSSSSEQSPLQKQGIHSPSDFELTEEEAEEPDDNSLQSPEMKCYQSQKLWQINNQEKSWQRPPLNCSHLIALALRNNPHCGLSVQEIYNFTRQHFPFFWTAPDGWKSTIHYNLCFLDSFEKVPDSLKDEDNARPRSCLWKLTKEGHRRFWEETRVLAFAQRERIQECMSQPELLTSLFDL
B5: FOXP4 (protein, UniProt Q8IVH2 1-680, looked up)
Forkhead box protein P4: MMVESASETIRSAPSGQNGVGSLSGQADGSSGGATGTTASGTGREVTTGADSNGEMSPAELLHFQQQQALQVARQFLLQQASGLSSPGNNDSKQSASAVQVPVSVAMMSPQMLTPQQMQQILSPPQLQALLQQQQALMLQQLQEYYKKQQEQLHLQLLTQQQAGKPQPKEALGNKQLAFQQQLLQMQQLQQQHLLNLQRQGLVSLQPNQASGPLQTLPQAAVCPTDLPQLWKGEGAPGQPAEDSVKQEGLDLTGTAATATSFAAPPKVSPPLSHHTLPNGQPTVLTSRRDSSSHEETPGSHPLYGHGECKWPGCETLCEDLGQFIKHLNTEHALDDRSTAQCRVQMQVVQQLEIQLAKESERLQAMMAHLHMRPSEPKPFSQPLNPVPGSSSFSKVTVSAADSFPDGLVHPPTSAAAPVTPLRPPGLGSASLHGGGPARRRSSDKFCSPISSELAQNHEFYKNADVRPPFTYASLIRQAILETPDRQLTLNEIYNWFTRMFAYFRRNTATWKNAVRHNLSLHKCFVRVENVKGAVWTVDEREYQKRRPPKMTGSPTLVKNMISGLSYGALNASYQAALAESSFPLLNSPGMLNPGSASSLLPLSHDDVGAPVEPLPSNGSSSPPRLSPPQYSHQVQVKEEPAEAEEDRQPGPPLGAPNPSASGPPEDRDLEEELPGEELS
B6: FOXM1 (protein, UniProt O08696 1-760, looked up)
Forkhead box protein M1: MRTSPRRPLILKRRRLPLPVQNAPSETSEEEAKRSPAQPEPAPAQASQEVAESSSCKFPAGIKIINHPTTPNTQVVAIPSNADIQSIITALTAKGKESGTSGPNRFILISSGGPSSHPSQPQAHSSRDSKRAEVITETLGPKPAAKGVPVPKPPGAPPRQRQESYAGGEAAGCTLDNSLTNIQWLGKMSSDGLGPCSVKQELEEKENCHLEQNRVKVEEPSGVSTSWQDSVSERPPYSYMAMIQFAINSTERKRMTLKDIYTWIEDHFPYFKHIAKPGWKNSIRHNLSLHDMFVRETSANGKVSFWTIHPSANRHLTLDQVFKPLEPGSPQSPEHLESQQKRPNPELHRNVTIKTEIPLGARRKMKPLLPRVSSYLEPIQFPVNQSLVLQPSVKVPFRLAASLMSSELARHSKRVRIAPKVLLSSEGIAPLPATEPPKEEKPLLGGEGLLPLLPIQSIKEEEMQPEEDIAHLERPIKVESPPLEEWPSPCASLKEELSNSWEDSSCSPTPKPKKSYCGLKSPTRCVSEMLVTKRREKREVSRSRRKQHLQPPCLDEPDLFFPEDSSTFRPAVELLAESSEPAPHLSCPQEEGGPFKTPIKETLPVSSTPSKSVLSRDPESWRLTPPAKVGGLDFSPVRTPQGAFGLLPDSLGLMELNTTPLKSGPLFDSPRELLNSEPFDLASDPFGSPPPPHVEGPKPGSPELQIPSLSANRSLTEGLVLDTMNDSLSKILLDISFPGLEEDPLGPDNINWSQFIPELR
B7: FOXN2 (protein, UniProt P32314 1-431, looked up)
Forkhead box protein N2: MGPVIGMTPDKRAETPGAEKIAGLSQIYKMGSLPEAVDAARPKATLVDSESADDELTNLNWLHESTNLLTNFSLGSEGLPIVSPLYDIEGDDVPSFGPACYQNPEKKSATSKPPYSFSLLIYMAIEHSPNKCLPVKEIYSWILDHFPYFATAPTGWKNSVRHNLSLNKCFQKVERSHGKVNGKGSLWCVDPEYKPNLIQALKKQPFSSASSQNGSLSPHYLSSVIKQNQVRNLKESDIDAAAAMMLLNTSIEQGILECEKPLPLKTALQKKRSYGNAFHHPSAVRLQESDSLATSIDPKEDHNYSASSMAAQRCASRSSVSSLSSVDEVYEFIPKNSHVGSDGSEGFHSEEDTDVDYEDDPLGDSGYASQPCAKISEKGQSGKKMRKQTCQEIDEELKEAAGSLLHLAGIRTCLGSLISTAKTQNQKQRKK
B8: FOXR1 (protein, UniProt Q6PIV2 1-292, looked up)
Forkhead box protein R1: MGNELFLAFTTSHLPLAEQKLARYKLRIVKPPKLPLEKKPNPDKDGPDYEPNLWMWVNPNIVYPPGKLEVSGRRKREDLTSTLPSSQPPQKEEDASCSEAAGVESLSQSSSKRSPPRKRFAFSPSTWELTEEEEAEDQEDSSSMALPSPHKRAPLQSRRLRQASSQAGRLWSRPPLNYFHLIALALRNSSPCGLNVQQIYSFTRKHFPFFRTAPEGWKNTVRHNLCFRDSFEKVPVSMQGGASTRPRSCLWKLTEEGHRRFAEEARALASTRLESIQQCMSQPDVMPFLFDL

Tested on: HEK293FT cells transfected with TF library
Test: Screening of TF condensates based on fluorescent puncta
Assay type: cell-based
Conditions: Figure 1B numerical data; TF library screen, one value per transcriptional factor
Summary of the method: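 Puncta scoring used automated confocal imaging of fifty random fields per well, after anti-Flag or anti-GAL4 immunofluorescence (Alexa 488) in PFA-fixed cells. HEK293FT cells carried TF library plasmids delivered with PEI (1.6 μg/ml DNA). At 60 h they were switched for 12 h to glucose-containing or glucose-free medium.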

Molecule | Z score of condensed fraction
B1 | 2.025
B2 | -0.05729
B3 | -0.5303
B4 | -0.6086
B5 | 0.7085
B6 | 2.036
B7 | -0.402
B8 | -0.3141
